How the values were obtained:
MS2 coat protein [1] = assay: apparent KD of MS2 coat protein, switch OFF state (with FMN for OFF switches, without FMN for ON switches); designed switch direction (-1 OFF switch, 1 ON switch): 1; higher = weaker reporter binding; settings: FMN input: 0 or 200 uM; Eterna round: R93 (includes R88 designs)
How it was run: (§1)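 The buffer was 100 mM Tris-HCl pH 7.5 with 80 mM KCl and 4 mM MgCl2, used without or with constant ligand. In it, RNA switches transcribed on-chip from Illumina sequencing clusters were titrated with SNAP-549-labelled MS2 coat protein in twofold steps from 0.7 or 1.5 nM to 3 µM. Apparent KD for each design is the median of its normalised cluster binding-curve fits.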

MS2 coat protein [2] = assay: apparent KD of MS2 coat protein, switch ON state; designed switch direction (-1 OFF switch, 1 ON switch): 1; higher = weaker reporter binding; settings: FMN input: 0 or 200 uM; Eterna round: R93 (includes R88 designs)
How it was run: as §1

Sequence	apparent KD of MS2 coat protein (MS2 coat protein [1]) [µM]	apparent KD of MS2 coat protein (MS2 coat protein [2]) [µM]
AAUAUACAUGAGGAUCACCCAUGUUAGGUGGGACUAGGAUAUCAAAAUACAUAAUGAACAUGAGAAGGAGUAUCAA [JR_SS001_Sub403]	0.249	0.14
AAUAUACAUGAGGAUCACCCAUGUUAGGUGGGACUAGGAUAUCAGAGUACAUAAUGAACAUGAGAAGGAGUAUCAA [JR_SS001_Sub404]	0.11	0.115
AAUAUACAUGAGGAUCACCCAUGUUUUAAUAACGCAGGAUAUACGGGUGAAAACAGCAUAGUAGAAGGGCGAAAAA [SameState1 Malc#1]	0.106	0.0318
AAUAUACAUGAGGAUCACCCAUGUUUUAAUAACUGAGGAUAUACGGGUGAAAACAGCAUAGUAGAAGGCAGAUAUA [SameState1 Malc#6]	0.102	0.0378
AAUAUAUUAUUUAAGGAUAUCAUAGGAAACACAUGAGGAUCACCCAUGUGGGAAACCUGGUCGGGUGAGAAGGUGGAUAAUAUAU [Samwise Clockwise 35 - Jieux - Same State 2]	0.0352	0.0138
AAUCCAAAUAGUCAGGAUAUCAAAAAUAAGACAUGAGGAUCACCCAUGUACUAAGUAAAAGUAAAUGAGAAGGGACAGGGUGAAA [JR_SS002_Sub402]	0.145	0.138
AAUGAACAUGAGGAUCACCCAUGUUCUAACAGUUGAGGAUAUGUGGGUGAAAAUAGCACGGCAGAAGGCGAGUGUA [SameState1 Malc#20]	0.0546	0.119
AAUUGACAUGAGGAUCACCCAUGUAGGAUUAUGGGAGGAUAUACAAAGACGAGAGUCAGAGUAGAAGGCCUAGGAA [salish99-ss1-146]	0.0821	0.025
ACUAUACAUGAGGAUCACCCAUGUUAGCUGGGCGAAGGAUAUGUAGAUGGAUAAAAAUAUGCAGAAGGUCGAUAAC [JR_SS001_Sub210]	0.0772	0.0395
AGAAAUAAAAGAGAGGAUAUCCUAAAGAAAACAUGAGGAUCACCCAUGUAAAAGAAAAUAAAAUGGGAGAAGGCUCAAAAUAAAG [80%, More Helter Skelter 2]	0.0395	0.0154
AGAAAUAAAAGCUAGGAUAUCCAAAAGAAAACAUGAGGAUCACCCAUGUGAAAGAAAAUAAAAUGGGAGAAGGAGCAAAAUAAGA [Topaz 51]	0.031	0.0175
AGAAAUAAACCGAAGGAUAUCCAAACCUAAACAUGAGGAUCACCCAUGUAAAAGAAAAUAAAAUGGGAGAAGGUCGGAAAUAAGA [Designing denovo 13]	0.0253	0.0177
AGAAGACAUGAGGAUCACCCAUGUGGGAAUAUGGGAGGAUAUACAAAGACGAGAGUCAGAGUAGAAGGCCUAGGCA [salish99-ss1-111]	0.129	0.047
AGAAGACAUGAGGAUCACCCAUGUGGGAAUAUGGGAGGAUAUACAAAGACGAGAGUCAGAGUAGAAGGCCUAGGUA [salish99-ss1-109]	0.0995	0.0325
AGAAUAAAAACAGAGGAUAUCCAAAAGAAAACAUGAGGAUCACCCAUGUAAAAGAAAAUAAAAUGGGAGAAGGCUGAAAUAAAGA [Mat - Same State 2 - Eli mod - D97]	0.0332	0.0149
AGGAAACAUGAGGAUCACCCAUGUAAAAGGUGGUUAGGAUAUGCAAAAAGAAAAAGAAAAGCAGAAGGGACAAGAA [mod of top voted: #1]	0.6	0.351
AGGAAACAUGAGGAUCACCCAUGUAGAAAUAUGGGAGGAUAUACAAAGACGAAAGUCAAAGUAGAAGGCCUAAAAA [Mat - Same State 1 - Mod - D151]	0.0571	0.0176
AGGAGACAUGAGGAUCACCCAUGUGAGAAGAGGCGAGGAUAUCGAAAAAAAGAAAGAAAACGAGAAGGCGCGAGAA [salish99-SS1-015]	0.0645	0.0376
AGGAGACAUGAGGAUCACCCAUGUGAGAAGAGGCGAGGAUAUCGAAAGAAAGAAGAGAAACGAGAAGGCGCGAGCG [salish99-SS1-028]	0.0343	0.0267
AGGAGACAUGAGGAUCACCCAUGUGAGAAGAGGCGAGGAUAUCGAAAGAAAGAAGAGAAACGAGAAGGCGCGAGUG [salish99-SS1-026]	0.0409	0.0281
AUAAAACAUGAGGAUCACCCAUGUAGACACGUGGGAGGAUAUACUAGAUCGAAAGAUCUAGUAGAAGGCCUUCGUA [Mat - Same State 1 - JL mod - D94]	0.0384	0.0237

From the supplement of paper PMC9170038
